Laboratory results from paper PMC4504198 (Chemical biology & drug design, 2010).

Assay: in vitro
Type: in vitro ADME
Settings: human, plasma

| Compound | half-life [days] |
| --- | --- |
| [N-]=[N+]=NC(CCCCNC(=O)C1=C[C@H](O)[C@@H](NC(=O)[C@@H](CCC(=O)O)NC(=O)C2=C[C@H](O)[C@@H](NC(=O)[C@@H](CCC(=O)O)NC(=O)C3=C[C@H](O)[C@@H](NC(=O)[C@@H](CCC(=O)O)NC(=O)CN4CCN(CC(=O)O)CCN(CC(=O)O)CCN(CC(=O)O)CC4)[C@H]([C@H](O)[C@H](O)CO)O3)[C@H]([C@H](O)[C@H](O)CO)O2)[C@H]([C@H](O)[C@H](O)CO)O1)C(N)=O (some centres unmarked) [compound 7] | 4.08 |
| [N-]=[N+]=NC(CCCCNC(=O)[C@H](CCC(=O)O)NC(=O)C1=C[C@H](O)[C@@H](NC(=O)[C@H](CCC(=O)O)NC(=O)C2=C[C@H](O)[C@@H](NC(=O)[C@H](CCC(=O)O)NC(=O)C3=C[C@H](O)[C@@H](NC(=O)CN4CCN(CC(=O)O)CCN(CC(=O)O)CCN(CC(=O)O)CC4)[C@H]([C@H](O)[C@H](O)CO)O3)[C@H]([C@H](O)[C@H](O)CO)O2)[C@H]([C@H](O)[C@H](O)CO)O1)C(N)=O (some centres unmarked) [compound 10] | 16.2 |
